First the molecules themselves.
T1: ASK1 (apoptosis signal-regulating kinase), full-length (UniProt Q99683 1-1374, limits assumed)
T1 construct: Full-length; LexA fusion in yeast two-hybrid; HA-tagged (pcDNA3-HA-ASK1, gift of Dr. Ichijo) in 293 cells for co-IP and the MBP kinase assay; Flag-tagged in the GST-SEK1 kinase assay; also called ASK1-F; HA-ASK1
T1 sequence (looked up): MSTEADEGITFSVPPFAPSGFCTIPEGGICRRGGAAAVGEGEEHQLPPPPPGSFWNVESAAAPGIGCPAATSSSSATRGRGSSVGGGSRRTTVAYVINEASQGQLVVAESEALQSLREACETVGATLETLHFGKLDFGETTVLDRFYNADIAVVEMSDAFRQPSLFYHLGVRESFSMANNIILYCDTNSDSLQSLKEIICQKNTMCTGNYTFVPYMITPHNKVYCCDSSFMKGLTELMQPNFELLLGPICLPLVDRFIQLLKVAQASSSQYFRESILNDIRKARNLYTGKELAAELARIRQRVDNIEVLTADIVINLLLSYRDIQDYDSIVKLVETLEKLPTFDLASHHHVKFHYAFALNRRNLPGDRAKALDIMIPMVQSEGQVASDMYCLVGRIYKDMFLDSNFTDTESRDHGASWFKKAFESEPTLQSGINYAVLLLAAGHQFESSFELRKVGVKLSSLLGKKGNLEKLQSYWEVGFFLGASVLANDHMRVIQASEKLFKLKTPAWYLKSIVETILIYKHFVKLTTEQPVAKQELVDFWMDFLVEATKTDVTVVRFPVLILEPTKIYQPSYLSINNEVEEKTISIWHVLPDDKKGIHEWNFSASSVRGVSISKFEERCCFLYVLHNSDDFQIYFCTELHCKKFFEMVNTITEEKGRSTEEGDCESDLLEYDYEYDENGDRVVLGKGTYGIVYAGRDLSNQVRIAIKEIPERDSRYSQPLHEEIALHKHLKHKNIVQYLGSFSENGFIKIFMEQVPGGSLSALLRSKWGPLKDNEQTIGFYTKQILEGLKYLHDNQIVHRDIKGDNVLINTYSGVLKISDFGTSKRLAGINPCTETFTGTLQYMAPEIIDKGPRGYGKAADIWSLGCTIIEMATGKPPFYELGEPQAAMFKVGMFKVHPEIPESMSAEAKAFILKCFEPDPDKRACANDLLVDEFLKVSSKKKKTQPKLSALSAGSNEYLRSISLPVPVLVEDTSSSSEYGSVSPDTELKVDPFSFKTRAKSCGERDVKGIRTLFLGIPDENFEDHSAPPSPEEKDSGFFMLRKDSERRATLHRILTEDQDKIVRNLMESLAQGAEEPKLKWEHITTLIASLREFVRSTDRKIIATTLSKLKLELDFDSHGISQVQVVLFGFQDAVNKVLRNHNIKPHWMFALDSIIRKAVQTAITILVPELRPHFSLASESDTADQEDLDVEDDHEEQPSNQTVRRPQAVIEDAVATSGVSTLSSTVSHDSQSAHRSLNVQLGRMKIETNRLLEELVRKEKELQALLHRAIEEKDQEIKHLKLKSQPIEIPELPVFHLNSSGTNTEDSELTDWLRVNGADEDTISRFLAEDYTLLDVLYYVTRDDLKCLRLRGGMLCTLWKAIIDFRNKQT

T2: human glutaminyl-tRNA synthetase, full-length (human, UniProt P47897 1-775)
T2 construct: range 1-775; Fused to LexA in the yeast two-hybrid assay (pEG202); also called QRS; QRS-F
T2 sequence (looked up): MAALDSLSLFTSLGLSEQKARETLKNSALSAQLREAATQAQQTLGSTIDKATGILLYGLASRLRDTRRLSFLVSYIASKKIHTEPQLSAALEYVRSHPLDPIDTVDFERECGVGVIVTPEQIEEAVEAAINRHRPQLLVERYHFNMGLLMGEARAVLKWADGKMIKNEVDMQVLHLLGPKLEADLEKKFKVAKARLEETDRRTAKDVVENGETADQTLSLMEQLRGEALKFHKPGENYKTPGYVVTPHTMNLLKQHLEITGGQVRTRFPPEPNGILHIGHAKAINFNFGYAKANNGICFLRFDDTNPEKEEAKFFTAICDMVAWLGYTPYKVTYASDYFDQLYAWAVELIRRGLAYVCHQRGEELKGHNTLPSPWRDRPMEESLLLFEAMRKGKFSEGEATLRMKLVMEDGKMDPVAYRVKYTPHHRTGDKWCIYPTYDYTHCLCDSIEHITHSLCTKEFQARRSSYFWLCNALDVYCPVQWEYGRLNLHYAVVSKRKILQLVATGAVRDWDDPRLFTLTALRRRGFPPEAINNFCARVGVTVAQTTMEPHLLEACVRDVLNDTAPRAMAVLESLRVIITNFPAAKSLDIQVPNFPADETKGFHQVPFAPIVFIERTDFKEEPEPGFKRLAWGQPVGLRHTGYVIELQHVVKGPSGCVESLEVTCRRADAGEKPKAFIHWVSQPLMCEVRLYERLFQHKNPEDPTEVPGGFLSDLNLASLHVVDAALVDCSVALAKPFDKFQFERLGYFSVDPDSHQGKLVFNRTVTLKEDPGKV

B1: N-terminal 236 aa extension of human glutaminyl-tRNA synthetase (other, UniProt P47897 1-236, looked up)
chain: MAALDSLSLFTSLGLSEQKARETLKNSALSAQLREAATQAQQTLGSTIDKATGILLYGLASRLRDTRRLSFLVSYIASKKIHTEPQLSAALEYVRSHPLDPIDTVDFERECGVGVIVTPEQIEEAVEAAINRHRPQLLVERYHFNMGLLMGEARAVLKWADGKMIKNEVDMQVLHLLGPKLEADLEKKFKVAKARLEETDRRTAKDVVENGETADQTLSLMEQLRGEALKFHKPGE
notes: range 1-236; LexA fusion in yeast two-hybrid; GST fusion (pGEX4T-2), purified, in the in vitro pull-down; Myc-tagged from pcDNA3 in 293 cells for co-IP; also called QRS-N; LexA-QRS-N
B2: C-terminal 137 aa peptide of human Daxx (G604-D740) (other, UniProt Q9UER7 604-740, looked up)
chain: GAGMVSSTSFNGGVSPHNWGDSGPPCKKSRKEKKQTGSGPLGNSYVERQRSVHEKNGKKICTLPSPPSPLASLAPVADSSTRVDSPSHGLVTSSLCIPSPARLSQTPHSQPPRPGTCKTSVATQCDPEEIIVLSDSD
notes: range 604-740; B42 fusion in yeast two-hybrid; His fusion (pET28a), purified, in the in vitro pull-down; also called Daxx-C; B42-Daxx-C

One experiment addresses T3, human Daxx, full-length (human, UniProt Q9UER7 1-740).
T3 construct: range 1-740; Expressed from pcDNA3 in 293 cells for co-IP; also called B42-Daxx; pcDNA3-Daxx
The experiment in a line: summary of the experiments in the legend of FIG. 1.

For experiment [1], the target named is T1, ASK1 (apoptosis signal-regulating …). The experiment in a line: co-immunoprecipitation with anti-HA antibody from 293 cells (FIG. 3A). On the procedure: Figure 3: FIG. 3. Interaction of QRS-C and ASK1-N. A. The cDNA (4 ug each) encoding QRS-F. -N or -C (Myc tagged) cloned in pcDNA3 was transfected into 293 cells in 100-mm dishes with 0.5 ug pcDNA3-HA-ASK1 (a kind gift of Dr. Ichijo, Tokyo university, Japan). Co-immunoprecipitation between HA-ASK1 and QRS was carried out as described previously (11) using anti-HA antibody (Santa Cruz). The precipitated proteins were resolved in 10% SDS-polyacrylamide gel, and the presence of QRS-F and -N, and -C were detected by immunoblotting with anti-QRS (17) and Myc (9E10, Boehringer Mannheim) antibodies, respectively. -B. pcDNA3-QRS-F (4 ug) was co-transfected into 293 cells with pcDNA3-HA-ASK1-F (full length) or -N (N-terminal 649 aa) (4 ug each). The cells were harvested after 24 hrs and the ASK1 peptides were precipitated with anti-HA antibody and co-precipitation of QRS was determined by immunoblotting with anti-QRS antibody. […]
Since ASK1 is the immediate downstream kinase of Daxx, we tested whether QRS also interacts with ASK1. The interaction of the two proteins was determined by co-immunoprecipitation. […] Since the N-terminal 649 aa peptide was previously determined to be a regulatory domain interacting with Daxx, (FIG. 1), we tested whether QRS interacts with ASK1-N or -C. […]

In experiment [2] the target is T2, human glutaminyl-tRNA synthetase, …. Nature of the experiment: yeast two-hybrid (FIG. 2A). Here is the method: (§1) Figure 2: FIG. 2. Interaction of QRS-N and Daxx-C. A. (upper panel) The interaction of QRS and Daxx was mapped by yeast two hybrid analysis. The full-length (F), N-terminal 236 aa (N) and C-terminal 539 aa (C) peptides of QRS, and the full-length ASK1 were fused to LexA (DNA-binding protein). […] The pairs of LexA and B42 hybrid proteins were expressed in a yeast tester strain and the positive interactions were determined by the formation of blue colonies as described previously (8). […] Daxx-C and QRS-N were expressed as His (pET28a, Novagen) and GST (pGEX4T-2, Amersham Pharmacia Biotech) fusion proteins, respectively and purified following the manufacturer's instructions. The purified His-Daxx-C (5 ug) was mixed with GST or GST-QRS-N (5 ug) at 4° C. for 30 min in 20 mM sodium phosphate buffer, pH 7.8, containing 500 mM NaCl. The GST proteins were precipitated with the GST resin (10 ul) and the precipitated proteins were eluted and resolved by 12% SDS-polyacrylamide gel electrophoresis and stained with Coomasie blue. Figure 2:
(§2) Human Daxx was originally identified to be associated to Fas to mediate apoptotic signal ( 10) to its downstream kinase, ASK1 (11). The activation of ASK1 then results in activation of Jun N-terminal kinase (JNK) and p38 for cellular apoptosis (12). The interaction between QRS and Daxx was further refined by yeast two hybrid analysis. […]

The target of experiment [3] is T4, N-terminal 610 aa peptide of Daxx (human, UniProt Q9UER7 1-610).
T4 construct: range 1-610; Yeast two-hybrid construct; 610 aa overlaps Daxx-C (604-740) by a few residues as printed; also called Daxx-N
T4 sequence (Q9UER7 1-610 limits assumed): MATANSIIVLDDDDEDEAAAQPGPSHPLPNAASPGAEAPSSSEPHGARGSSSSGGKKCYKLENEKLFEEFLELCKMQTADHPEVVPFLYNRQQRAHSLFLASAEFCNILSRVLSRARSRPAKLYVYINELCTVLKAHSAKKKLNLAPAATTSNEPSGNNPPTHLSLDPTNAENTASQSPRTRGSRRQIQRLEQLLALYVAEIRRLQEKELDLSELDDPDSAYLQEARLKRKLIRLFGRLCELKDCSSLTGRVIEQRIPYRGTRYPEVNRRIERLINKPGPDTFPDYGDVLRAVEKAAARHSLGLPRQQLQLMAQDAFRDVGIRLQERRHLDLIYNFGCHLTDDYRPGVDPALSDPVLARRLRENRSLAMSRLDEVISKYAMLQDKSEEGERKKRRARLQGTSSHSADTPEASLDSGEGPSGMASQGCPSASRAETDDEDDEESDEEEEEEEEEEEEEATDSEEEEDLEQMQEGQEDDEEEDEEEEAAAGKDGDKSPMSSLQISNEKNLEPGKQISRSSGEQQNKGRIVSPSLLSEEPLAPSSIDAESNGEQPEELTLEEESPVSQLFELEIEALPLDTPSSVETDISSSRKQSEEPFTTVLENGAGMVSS
The experiment in a line: yeast two-hybrid (FIG. 2A lower panel). Here is the method:
as §1, with “Interaction” for “Figure 2: FIG. 2. Interaction”
as §2

Experiment [4] deals with B1. The experiment in a line: in vitro pull-down, purified His-Daxx-C with GST-QRS-N on GST resin, Coomassie-stained gel (FIG. 2B). Here is the method: as §1
The interaction between the Daxx-C and QRS-N was confirmed by in vitro pull down experiment. Daxx-C and QRS-N were expressed as His and GST fusion proteins, respectively. The purified two fusion proteins were then mixed and precipitated with the GST resin. Daxx-C was co-precipitated with QRS-N, confirming the direct interaction between the two molecules (FIG. 2B).

For the molecule B1, the binding result is listed as “binds” with human Daxx, full-length and “no binding” in experiment [1].

Turning to B2, the binding result in experiment [2], in experiment [3] and in experiment [4] was “binds” each time.

The values are drawn from patent US6548060 (dated 2003).
